Data from publication PMC2613655 (Journal of molecular biology, 2008).

B1: Ydj1 (natural protein, yeast, UniProt P25491 1-409, looked up)
chain: MVKETKFYDILGVPVTATDVEIKKAYRKCALKYHPDKNPSEEAAEKFKEASAAYEILSDPEKRDIYDQFGEDGLSGAGGAGGFPGGGFGFGDDIFSQFFGAGGAQRPRGPQRGKDIKHEISASLEELYKGRTAKLALNKQILCKECEGRGGKKGAVKKCTSCNGQGIKFVTRQMGPMIQRFQTECDVCHGTGDIIDPKDRCKSCNGKKVENERKILEVHVEPGMKDGQRIVFKGEADQAPDVIPGDVVFIVSERPHKSFKRDGDDLVYEAEIDLLTAIAGGEFALEHVSGDWLKVGIVPGEVIAPGMRKVIEGKGMPIPKYGGYGNLIIKFTIKFPENHFTSEENLKKLEEILPPRIVPAIPKKATVDECVLADFDPAKYNRTRASRGGANYDSDEEEQGGEGVQCASQ
B2: YSY (other, yeast, UniProt P25491 1-105, looked up)
chain: MVKETKFYDILGVPVTATDVEIKKAYRKCALKYHPDKNPSEEAAEKFKEASAAYEILSDPEKRDIYDQFGEDGLSGAGGAGGFPGGGFGFGDDIFSQFFGAGGAQNEDAFNIFSQFFGGSSPFGGADDSGFSFSSYPSGGGAGMGGMPGGMGGMHGGMGGMPGGFRSASSSPTYPEEETVQVNLPVSLEDLFVGKKKSFKIGRKGPHGASEKTQIDIQLKPGWKAGTKITYKNQGDYNPQTGRRKTLQFVIQEKSHKSFKRDGDDLVYEAEIDLLTAIAGGEFALEHVSGDWLKVGIVPGEVIAPGMRKVIEGKGMPIPKYGGYGNLIIKFTIKFPENHFTSEENLKKLEEILPPRIVPAIPKKATVDECVLADFDPAKYNRTRASRGGANYDSDEEEQGGEGVQCASQ
B3: SYS (other, yeast, UniProt P25294 1-121, looked up)
chain: MVKETKLYDLLGVSPSANEQELKKGYRKAALKYHPDKPTGDTEKFKEISEAFEILNDPQKREIYDQYGLEAARSGGPSFGPGGPGGAGGAGGFPGGAGGFSGGHAFSNEDAFNIFSQFFGGAGGAQRPRGPQRGKDIKHEISASLEELYKGRTAKLALNKQILCKECEGRGGKKGAVKKCTSCNGQGIKFVTRQMGPMIQRFQTECDVCHGTGDIIDPKDRCKSCNGKKVENERKILEVHVEPGMKDGQRIVFKGEADQAPDVIPGDVVFIVSERPHPNFKRDGDDLIYTLPLSFKESLLGFSKTIQTIDGRTLPLSRVQPVQPSQTSTYPGQGMPTPKNPSQRGNLIVKYKVDYPISLNDAQKRAIDENF
B4: Sis1 (natural protein, yeast, UniProt P25294 1-352, looked up)
chain: MVKETKLYDLLGVSPSANEQELKKGYRKAALKYHPDKPTGDTEKFKEISEAFEILNDPQKREIYDQYGLEAARSGGPSFGPGGPGGAGGAGGFPGGAGGFSGGHAFSNEDAFNIFSQFFGGSSPFGGADDSGFSFSSYPSGGGAGMGGMPGGMGGMHGGMGGMPGGFRSASSSPTYPEEETVQVNLPVSLEDLFVGKKKSFKIGRKGPHGASEKTQIDIQLKPGWKAGTKITYKNQGDYNPQTGRRKTLQFVIQEKSHPNFKRDGDDLIYTLPLSFKESLLGFSKTIQTIDGRTLPLSRVQPVQPSQTSTYPGQGMPTPKNPSQRGNLIVKYKVDYPISLNDAQKRAIDENF

Molecular target: the molecule itself
Test: SAXS

Protein	stoichiometry N
B1	2
B2	2
B3	2
B4	2
